test: soluble on expression in E. coli; label from the status in PepcDB or PDB records

Sequence	soluble on expression in E. coli
GSPGILMASQGTKRSYEQMETGGERQNATEIRASVGRMVGGIGRFYIQMCTELKLSDQEGRLIQNSITIERMVLSAFDERRNRYLEEHPSAGKDPKKTGGPIYRRRDGKWVRELILYDKEEIRRIWRQANNGEDATAGLTHMMIWHSNLNDATYQRTRALVRTGMDPRMCSLMQGSTLPRRSGAAGAAIKGVGTMVMELIRMIKRGINDRNFWRGENGRRTRIAYERMCNILKGKFQTAAQKAMMDQVRESRNPGNAEIEDLIFLARSALILRGSIAHKSCLPACVYGLAVASGYDFEREGYSLVGIDPFRLLQNSQVFSLIRPNENPAHKSQLVWMACHSAAFEDLRVSSFIRGTRVIPRGQLSTRGVQIASNENVEAMDSSTLELRSRYWAIRTRSGGNTNQQRASAGQISVQPTFSVQRNLPFERATIMAAFKGNTEGRTSDMRTEIIRMMESARPEDVSFQGRGVFELSDEKATNPIVPSFDMSNEGSYFFGDNAEEYDN	soluble
GSPHMLSGSGLCNSSSALPLYNQQVGDCCIIRVSLDVDNGNMYKSILVTSQDKAPAVIRKAMDKHNLEEEEPEDYELLQILSDDRKLKIPENANVFYAMNSTANYDFVLKKRTFT	soluble
GSPQAHPVPKDARITHSSGQSFEQMRQECLQRGTLFEDADFPASNSSLFYSERPQIPFVWKRPGEIVKNPEFILGGATRTDICQGELGDCWLLAAIASLTLNQKALARVIPQDQSFGPGYAGIFHFQFWQHSEWLDVVIDDRLPTFRDRLVFLHSADHNEFWSALLEKAYAKLNGSYEALKGGSAIEAMEDFTGGVAETFQTKEAPENFYEILEKALKRGSLLGCFIDTRSAAESEARTPFGLIKGHAYSVTGIDQVSFRGQRIELIRIRNPWGQVEWNGSWSDSSPEWRSVGPAEQKRLCHTALDDGEFWMAFKDFKAHFDKVEICNLTPDA	soluble
GSSTVTLPETLLFVSTLDGSLHAVSKRTGSIKWTLKEDPVLQVPTHVEEPAFLPDPNDGSLYTLGSKNNEGLTKLPFTIPELVQASPCRSSDGILYMGKKQDIWYVIDLLTGEKQQTLSSAFADSLSPSTSLLYLGRTEYTITMYDTKTRELRWNATYFDYAASLPEDDVDYKMSHFVSNGDGLVVTVDSESGDVLWIQNYASPVVAFYVWQREGLRKVMHINVAVETLRYLTFMSGEVGRITKWKYPFPKETEAKSKLTPTLYVGKYSTSLYASPSMVHEGVAVVPRGSTLPLLEGPQTDGVTIGDKGESVITPSTDVKFDPGLKSKNKLNYLRNYWLLIGHHETPLSASTKMLERFPNNLPKHRENV	soluble
GSVASVHASISGSSASSTSSTPEVKPLKSLLGDSAPTLHLNKGMAILFAVVARGTTILAKHAWCGGNFLEVTEQILAKIPSENNKLTYSHGNYLFHYICQDRIVYLCITDDDFERSRAFSFLNEVKKRFQTTYGSRAQTALPYAMNSEFSSVLAAQLKHHSENHHHHHH	soluble
GSVDIEVQDLEEFALRPAPQGITIKCRITRDKKGMDRGMFPTYFLHLDREDGKKVFLLAGRKRKKSKTSNYLISVDPTDLSRGGDSYIGKLRSNLMGTKFTVYDNGVNPQKASSSTLESGTLRQELAAVCYETNVLGFKGPRKMSVIVPGMNMVHERVCIRPRNEHETLLARWQNKNTESIIELQNKTPVWNDDTQSYVLNFHGRVTQASVKNFQIIHGNDPDYIVMQFGRVAEDVFTMDYNYPLCALQAFAIALSSFDSKLACE	soluble
GSYAEGQRKRRNTIHEFKKSAKTTLIKIDPALKIKTKKVNTADQCANRCTRNKGLPFTCKAFVFDKARKQCLWFPFNSMSSGVKKEFGHEFDLYENKDYIRNCIIGEGESYKGTVSITKSGIKCQPWSSMIPHEHSFLPSSYRGKDLQENYCRNPRGEEGGPWCFTSNPEVRYEVCDIPQCSEVECMTANGESYRGLMDHTESGKICQRWDHQTPHRHKFLPERYPDKGFDDNYCRNPDGQPRPWCYTLDPHTRWEYCAIKTCA	soluble
GSYHADPSLVSFLTGLGCPNCIEYFTSQGLQSIYHLQNLTIEDLGALKIPEQYRMTIWRGLQDLKQGHDYSTAQQLLRSS	soluble
GTGTRFGTDLAKEAKKVHQTTRTVPAKRGTIYDRNGVPIAEDATSYNVYAVIDENYKSATGKILYVEKTQFNKVAEVFHKYLDMEESYVREQLSQPNLKQVSFGAKGNGITYANMMSIKKELEAAEVKGIDFTTSPNRSYPNGQFASSFIGLAQLHENEDGSKSLLGTSGMESSLNSILAGTDGIITYEKDRLGNIVPGTEQVSQRTMDGKDVYTTISSPLQSFMETQMDAFQEKVKGKYMTATLVSAKTGEILATTQRPTFDADTKEGITEDFVWRDILYQSNYEPGSTMKVMMLAAAIDNNTFPGGEVFNSSELKIADATIRDWDVNEGLTGGRMMTFSQGFAHSSNVGMTLLEQKMGDATWLDYLNRFKFGVPTRFGLTDEYAGQLPADNIVNIAQSSFGQGISVTQTQMIRAFTAIANDGVMLEPKFISAIYDPNDQTARKSQKEIVGNPVSKDAASLTRTNMVLVGTDPVYGTMYNHSTGKPTVTVPGQNVALKSGTAQIADEKNGGYLVGLTDYIFSAVSMSPAENPDFILYVTVQQPEHYSGIQLGEFANPILERASAMKDSLNLQTTAKALEQVSQQSPYPMPSVKDISPGDLAEELRRNLVQPIVVGTGTKIKNSSAEEGKNLAPNQQVLILSDKAEEVPDMYGWTKETAETLAKWLNIELEFQGSGSTVQKQDVRANTAIKDIKKITLTLGD	soluble
GVALGATRVIYPAGQKQVQLAVTNNDENSTYLIQSWVENADGVKDGRFIVTPPLFAMKGKKENTLRILDATNNQLPQDRESLFWMNVKAIPSMDKSKLTENTLQLAIISRIKLYYRPAKLALPPDQAAEKLRFRRSANSLTLINPTPYYLTVTELNAGTRVLENALVPPMGESAVKLPSDAGSNITYRTINDYGALTPKMTGVME	soluble
GVKLQQSGPEVVKPGASVKISCKASGYSFTNFYIHWVKQRPGQGLEWIGWIFHGSDNTEYNEKFKDKATLTADTSSSTAYMQLSSLTSEDSAVYFCARWGPHWYFDVWGQGTTVTVSSAKTTPPSVYPLAPGNSMVTLGCLVKGYFPEPVTVTWNSGSLSSGVHTFPAVLQSDLYTLSSSVTVPSSTWPSETVTCNVAHPASSTKVDKKIAAAG	soluble
GVNSVAARVTELTGREVAAVAERGHSHRWHLYRVELADGTPLFVKALPDDAPALDGLFRAEALGLDWLGRSFGSPVPQVAGWDDRTLAMEWVDERPPTPEAAERFGHQLAAMHLAGAESFGATWDGYIGPLPMDNTPRSTWPEFYAEQRILPYLRRAADRGALTPGDVRLVEKVLDALDHLAGDPEPPARIHGDLWNGNVLWQDDGAVVIDPAAHGGHREADLAMLALFGLPYLDRVRDAYNEVAPLAEGWRARIPLHQLHPLLVHVCLFGAAYRTTLVDTARAALRA	soluble
GVSTAVAQDFTIAAKHAIAVEANTGKILYEKDATQPVEIASITKLITVYLVYEALENGSITLSTPVDISDYPYQLTTNSEASNIPMEARNYTVEELLEATLVSSANSAAIALAEKIAGSEKDFVDMMRAKLLEWGIQDATVVNTTGLNNETLGDNIYPGSKKDEENKLSAYDVAIVARNLIKKYPQVLEITKKPSSTFAGMTITSTNYMLEGMPAYRGGFDGLKTGTTDKAGESFVGTTVEKGMRVITVVLNADHQDNNPYARFTATSSLMDYISSTFTLRKIVQQGDAYQDSKAPVQDGKEDTVIAVAPEDIYLIERVGNQSSQSVQFTPDSKAIPAPLEAGTVVGHLTYEDKDLIGQGYITTERPSFEMVADKKIEK	soluble
GVVGSDARSRGRVPGYASSSLYRESGIISARQLALLQRMLPRLRLEQLFRCEWLQQRLARGLALGREEVRQILLCAAQDDDGWCAELGDRVNLAVPQSMIDWVLLPVYGWWESLLDQAIPGWRLSLVELETQSRQLRIKSEFWSRVAELEPEQAREELARVAKCQARTQEQVAELAGKLETASALAKSAWPNWQRGMATLLASGGLAGFEPIPEVLECLWQPLCRLDDDVGAADAVQAWLHERNLCQAQDHFYWQS	soluble
HFNVLADTPSGLVPLHLRSPQVPAAQQMLNFPEKNKEKPVDLQNFGLRTDIYSKKTLAKSKGASAGREWTEQETLLLLEALEMYKDDWNKVSEHVGSRTQDECILHFLRLPIEDPYLENSDASLGPLAYQPVPFSQSGNPVMSTVAFLASVVDPRVASAAAKAALEEFSRVREEVPLELVEAHVKKVQEAARASGKVDPTYGLESSCIAGTGPDEPEKLEGAEEEKMEADPDGQQPEKAENKVENETDEGDKAQDGENEKNSEKEQDSEVSEDTKSEEKETEENKELTDTCKERESDTGKKKVEHEISEGNVATAAAAALASAATKAKHLAAVEERKIKSLVALLVETQMKKLEIKLRHFEELETIMDREKEALEQQRQQLLTERQNFHMEQLKYAELRARQQMEQQQHGQNPQQAHQHSGGPGLAPLGAAGHPGMMPHQQPPPYPLMHHQMPPPHPPQPGQIPGPGSMMPGQHMPGRMIPTVAANIHPSGSGPTPPGMPPMPGNILGPRVPLTAPNGMYPPPPQQQPPPPPPADGVPPPPAPGPPASAAP	soluble
HHHHHHATGDDHFYAEYLMPGLQRLLDPESAHRLAVRVTSLGLLPRATFQDSDMLEVKVLGHKFRNPVGIAAGFDKNGEAVDGLYKLGFGFVEVGSVTPQPQEGNPRPRVFRLPEDQAVINRYGFNSHGLSVVEHRLRARQQKQAQLTADGLPLGINLGKNKTSEDAAADYAEGVRTLGPLADYLVVNVSSPNTAGLRSLQGKTELRHLLSKVLQERDALKGTRKPAVLVKIAPDLTAQDKEDIASVARELGIDGLIVTNTTVSRPVGLQGALRSETGGLSGKPLRDLSTQTIREMYALTQGRIPIIGVGGVSSGQDALEKIQAGASLVQLYTALIFLGPPVVVRVKRELEALLKERGFTTVTDAIGADHRR	soluble
HHHHHHGHMRTNKDRLVRISVVGEIAPAKMRSPYSVTTEGTVRVIPVLGGITYNVKVGDSAYGWAGDHVEPGVSVMARRKEEEIPLMTLSCIGNEVIVMSGDAKGSRGFVTGKHGGVNHVLVHFEEEVLGKLMVGDKILIKAWGQGLKLLDHPDVKVMNIDPDLFEKLGIQEKNGKIHVPVVAKIPAHMMGSGIGASSSASTDYDIMASNPEDLGVADLKLGDIVAIQDHDNSYGVGKYRKGAVSIGVVVHSACVSAGHGPGVVVIMTGDESKILPEEVERANISDYLVR	soluble
HHHHHHMDLVEKVKELCLELEEENLAKAIERFITLTHGIEKTRGEAFAKASIYGFLEGILTTLKMKYSNEKIETLLNEVKTAREETEALLRKPRPPLLVDNDL	soluble
HHHHHHMPIQVLPPQLANQIAAGEVVERPASVVKELVENSLDAGATRIDIDIERGGAKLIRIRDNGCGIKKDELALALARHATSKIASLDDLEAIISLGFRGEALASISSVSRLTLTSRTAEQQEAWQAYAEGRDMNVTVKPAAHPVGTTLEVLDLFYNTPARRKFLRTEKTEFNHIDEIIRRIALARFDVTINLSHNGKIVRQYRAVPEGGQKERRLGAICGTAFLEQALAIEWQHGDLTLRGWVADPNHTTPALAEIQYCYVNGRMMRDRLINHAIRQACEDKLGADQQPAFVLYLEIDPHQVDVNVHPAKHEVRFHQSRLVHDFIYQGVLSVLQQQLETPLPLDDEPQPAPR	soluble
HHHHHHTNEAYLAHERRELEAKRNQLRDEVDRTKTHMQDEAANDPNWFDITAQLWEFSQELRNRDREEKLIKKIEQTLKKVENED	soluble

Reference: the DeepSol protein solubility set
